Measurements from publication PMC4725963.

Target: CdiA-CT_(PA0041), C-terminal (CT) toxin domain of CdiA_(PA0041) of P. aeruginosa PAO1 (P. aeruginosa PAO1)

## CdiI_(PA2462)-His6, immunity protein of the cdi_(PA2462) locus of P. aeruginosa PAO1 (natural protein)
  decrease of CFU/ml of E. coli co-producing CdiA-CT (PA0041) (1% arabinose) with the non-cognate CdiI (PA2462)-His6 (1 mM IPTG), after 6 h of culture: no protection: 6 logs
